Blank lines part the entries; values can stand above or below the substance they belong to.
Experiments:
[1] = molecular target: mEGFP (free), expressed in U-2 OS cells; experiment: FRET or BRET; in living U-2 OS cells co-transfected with both proteins; only cells with about 1:1 expression; epifluorescence microscope, infrared laser temperature ramp 19-46°C; average of 15-30 cells
[2] = molecular target: FRET-PGK1 (PGK1 labeled with mEGFP at the N-terminus and mCherry at the C-terminus) (yeast) (UniProt P00560)
[3] = molecular target: ePGK2, expressed in U-2 OS cells (yeast) (UniProt P00560); experiment: FRET or BRET; in living U-2 OS cells co-transfected with both proteins; only cells with about 1:1 expression; epifluorescence microscope, infrared laser temperature ramp 19-46°C; average of 15-30 cells
[4] = molecular target: ePGK3, expressed in U-2 OS cells (yeast) (UniProt P00560); experiment: as above

E FRET change [1]: 2%
Substance: mCherry (free), expressed in U-2 OS cells

folding efficiency of GuHCl-denatured efPGK1 in stopped flow refolding (intramolecular FRET) with 100 μM Hsp70 and 22.5 μM Hsp40, 2 mM ATP; 47% without Hsp70 [2]: 57%
Substance: Hsp70 (as used in the stopped flow PGK refolding assay) (from UniProt P0DMV8 1-641) (natural protein)

T0 (binding temperature midpoint) [3]: 39.1 °C
overall E FRET change [3]: 8%
T0 (binding temperature midpoint) [4]: 37.1 °C
overall E FRET change [4]: 8%
Substance: mHsp70 (Hsp70 labeled by mCherry at the C-terminus), expressed in U-2 OS cells (from UniProt P0DMV8 1-641) (natural protein)

— article PMC6762143
